{"source": "the DeepSol protein solubility set", "data": [{"assay": "soluble on expression in E. coli; label from the status in PepcDB or PDB records", "values": [{"sequence": "MGSDKIHHHHHHMKTTSVPVAYMPLIDAAPLIVGQEMGFAEAEGISLELIAAPSWSSVRDMLAFGRVDLAHLLSVVPVAMALRLGGVTNPMSAVSVLSVNGNVIGVSRALEARLRAAGYPFDFADAAAAGAALAKVTQGGLTIGVPFPFSMHVELLQVWRSSTPLASVPLDIRTVPPPMMAQALASGEIDAFCVGEPWGSVSVENGAGALLLPGRAIWSFAPEKVLATRADWAETEPHLLGRVMRTVWRAGKWLADPSSRTAAAELLSRPRWLDVPAELVDRALTGELAISPDGEVRDVPGFLEFHHGAANFPWRSQGKWIATQLATRTGMDPSAAARQAADVFRSDLYRAALDGTGADMPGASEKLEGSLIHPTAVASTRGQMILDTDVFFDGRIFDPTT", "soluble on expression in E. coli": "not soluble"}, {"sequence": "MGSDKIHHHHHHMKVFSERADKPHAYLFGEYTNPLGFDPVELALSEDGQAWQSIFDDPNLSNVYLVDFDWLPPVIADTYRTAGTRDGQQLANSRLDQRDIVLKFIAYCRGDADEKLTFQSLSNFLIRRHNYWVAFDNDGSRMYHVREKTITAEYYGDKMMMITVTLNNFTGVAQSIMPSAHINEMPNIGLGLPTDIVNYVFRTSEFDVNNIGELPVDPLVQGDYFDITLTGIGSPTIANTTTGDAITCTKSLTTGDTFKLIGVNPQINGQAAGINTDNGIIRLASGNNHFKITGCQDLNCTVNFYFKYLN", "soluble on expression in E. coli": "not soluble"}, {"sequence": "MGSDKIHHHHHHMKVIIVDDDKAMFLILKKMLSKIHNVEVIGTFDRLSTTMEFLENNEVDLAFLDIKISGDNGIDLAKQIVNLKKQINIVFISSHKEFALDSFDVFPLDYIVKPVSQEKLERAIDRASKVIIKSGEEEYKAFIYCFGGLEVRGRNNESVKWISTKSMELFSYLVINSGRSISRGRVIKDIFEEMELKDVESYLNTIVYQLRKALSPLGLKKIITFDSQGYSFDFKDVYVDYIDFISGVESIKEINKDNIDRAKQLVYLYKGDLFDDKEYIWAVGEKEYASNLYSKFLGKVCSWYLENDLINDAYSMGKKLIQYNELDSEVNKIFMNILAARRDKISLNKHYERYAKVLFRELGVKVEDSVEELYRKLIKVLR", "soluble on expression in E. coli": "not soluble"}, {"sequence": "MGSDKIHHHHHHMKVKPFSLSIPFNTEPPSDWKDAWDVQLYVKVEDEKDYGWGEALVAGSGIINSYLSIINDIAIPLLSRVELSEPIDVRTILEKILFSAGNCGVVSGAISAVEMALWSLKARKSNVELYKLIGDKIRDSVKVYASFPRFGKIDDVLIATRKSLERGFDLVKLHQSPSTVLAAVKAIRENYKEVKIAIDLNSPFDNLDVAKEFVDKVHKYEIEWIEEPLWPPNDYDLLSKLTEFSPIPIAAGENEYSLYGFKKLIESGITYLQPDIAKVGGVTKFLEILDLASKYKVRVLPHDRPDASPISLIYTLNIGLVKSQIEMVEYTIADFPNDLFYSLPKFKDGYISPPENLEVVERNIEKYSYKNRLRILHFSDLENKLMRKIT", "soluble on expression in E. coli": "not soluble"}, {"sequence": "MGSDKIHHHHHHMKVKSVSEILIYPPDRIVGDLWIVRNWVTKRNYKVSSPTLAILLYCKIPHTVGDILDFFYEKYGIKNELIHLGLKKLMATDLLLEVKQEMDGSNEVFGLEFDNWYKHNWYMALLYHLVSYDYPFIEDYVAKQRMINYSSQEIDSNRYKEYNSQVSYDIPKATEVKIRETNTSKQKCVNFADLLTMASLGYTRVGSLRVYWNGDPLILRTSPSGGSRHPTETYIVAINVEGLESGWYHISVKDSKLEQIKIGGTDPDDLRLLFPTTYVRPDFHVDLILIFTSIFERNMYRYREPRTFRTIHMDVGHLAATTEIICEKLGYKYLVQYSANDEGIEKFLGLSPLKEGYMASMAIGN", "soluble on expression in E. coli": "not soluble"}, {"sequence": "MGSDKIHHHHHHMKVTIIGAAGQIPHFLIPMLQKQTDAELTLFARNATSRLLDYSKPTVRIVDGDASKSGDVKTAITDADVVFMDFDNPEAVKNVIKVMDQLGKKRLIVAGVLGVYDEVAGAFGKWNNMMIGSGYLPHKQAVTELEKSDLDYTYMRMTWLYDQDGNTNYETQKKGQPLIGAQVTRQAVSQYVIDMIKNPELGIRESNGVVEPNTNFAKPSFY", "soluble on expression in E. coli": "not soluble"}, {"sequence": "MGSDKIHHHHHHMKVTVTTLELKDKITIASKALAKKSVKPILAGFLFEVKDGNFYICATDLETGVKATVNAAEISGEARFVVPGDVIQKMVKVLPDEITELSLEGDALVISSGSTVFRITTMPADEFPEITPAESGITFEVDTSLLEEMVEKVIFAAAKDEFMRNLNGVFWELHKNLLRLVASDGFRLALAEEQIENEEEASFLLSLKSMKEVQNVLDNTTEPTITVRYDGRRVSLSTNDVETVMRVVDAEFPDYKRVIPETFKTKVVVSRKELRESLKRVMVIASKGSESVKFEIEENVMRLVSKSPDYGEVVDEVEVQKEGEDLVIAFNPKFIEDVLKHIETEEIEMNFVDSTSPCQINPLDISGYLYIVMPIRLA", "soluble on expression in E. coli": "soluble"}, {"sequence": "MGSDKIHHHHHHMKYISPGDWFSLEYPMGWHEFEDTEESFLFYNPDRWTGNFRISAYKDEAADYGPQCIAYELKENTSSALVKVGKWDCAYSAETFQEEGAWYTTHIWVTGEGDLSFECSFTVSKGGDKHPAEEIIRSLQVRKEGVSHPREIIPIRVLEIGEVNTAFEWASTTIKKQLTKDFTASESDIDSIQQVMDSGRFQTQQRMAWENFGIAFGAILVNEMEGMEWVTVIEGQKEYPALQFMCSDMVLDPAALVWGKAKKGLPCDLKSEFRKIKREAEAVLDDLNK", "soluble on expression in E. coli": "not soluble"}, {"sequence": "MGSDKIHHHHHHMKYRTVFDIIGPVMIGPSSSHTAGAARIGRVARTLFGQQPERCDIYFYGSFAETYKGHGTDVAIVGGILDFDTFDPRIPRSLQLAKEKGVRVYFHEEEAITDHPNTAKVVLQKGEDQLEVVGVSIGGGKIEIVELNGFHLKLSGNHPAILVVHTDRFGVIASVSNMLAKHEINIGHMEVSRKEKGKEALMVIEVDQNVDDLLLQELERLPNIVTVTKIHD", "soluble on expression in E. coli": "not soluble"}, {"sequence": "MGSDKIHHHHHHMKYSLGPVLYYWPKETLEDFYQQAANCSADTIYLGEAVCSKRRATKVGDWIEMAKTLAASGKQIVLSTLALVQASSELGELKRYVDNGEFLIEASDLGVVNLCAERKLPFVAGHALNCYNAVTLRLLRKQGMVRWCMPVELSRDWLANLLTQCEELGIRNQFEVEVLSYGHLPLAYSARCFTARSEDRPKDECETCCIKYPTGRSMLSQENQQVFVLNGIQTMSGYVYNLGNELTSMHGLVDMVRLSPMGNETFAMLEAFRANENGAAPLDLTSNSDCNGYWKRLPGLVLHA", "soluble on expression in E. coli": "not soluble"}, {"sequence": "MGSDKIHHHHHHMKYVVVSGGVISGIGKGVLASSTGMLMKTLGLKVTSIKIDPYMNIDAGTMSPLEHGECFVLDDGGETDLDLGNYERYLGVTLTKDHNITTGKIYSHVIAKERKGDYLGKTVQIVPHLTNAIQDWIERVAKIPVDDTGMEPDVCIIELGGTVGDIESAPFVEALRQFQFKVGKENFALIHVSLVPVIHGEQKTKPTQAAIKGLRSLGLVPDMIACRCSETLDKPTIDKIAMFCHVGPEQVVNVHDVNSTYHVPLLLLEQKMIDYLHARLKLDEISLTEEEKQRGLELLSKWKATTGNFDESMETVKIALVGKYTNLKDSYLSVIKALEHSSMKCRRKLDIKWVEATDLEPEAQESNKTKFHEAWNMVSTADGILIPGGFGVRGTEGMVLAARWARENHIPFLGVCLGLQIATIEFTRSVLGRKDSHSAEFYPDIDEKNHVVVFMPEIDKETMGGSMRLGLRPTFFQNETEWSQIKKLYGDVSEVHERHRHRYEINPKMVDELENNGLIFVGKDDTGKRCEILELKNHPYYIATQYHPEYTSKVLDPSKPFLGLVAASAGILQDVIEGKYDLEAGENKFNF", "soluble on expression in E. coli": "not soluble"}, {"sequence": "MGSDKIHHHHHHMLANQNVRARVQNHQLFSSLNEAQLAKIFATASLLHIKPEQMLFHQGELASRFYFVLAGTLQLFRTNVQGQMKVIEVVRSGCTFAEALMFNKQTRFPVSAQSVSECALVSFDSETYLQLLKHNPDACIAIMADLSVRIRKHINEVEMVSLQNAQHRLLLFLLRKMTVVGDNQGEITLDIPKRLLASRLSIQPETFSRLIKKMSQTGLIAESHGVIRIPDVALLYASTDISITQPTFNQQGPSSAIPLVCN", "soluble on expression in E. coli": "not soluble"}, {"sequence": "MGSDKIHHHHHHMLDENFEALRREATAWIVRITSGTATTEDAEALLRWRSRSDAHEQAFQQSARLWKNLGSALGETRKTSASTVTRRSFIAAGSVAAGAAGVGVVLSELGFLPSVDAMLADYATGVGEQRTVELVDGSTAILDGGTTLSLDYSPSSRHLVLTSGAAVFDVVHDAARPFVVTAANGDTTATGTSFSVKHGEEDVSIECLEGHITVQCLGDSQLNGGEGISYSRAGLGKKVAADIETAAAWRRGLLIFEDRPLADVVSDLNRHRRGRVVIASSDLRSRRMSGVFHLNRPDEILAHLEETLQVRPVSLVGGIVLLR", "soluble on expression in E. coli": "not soluble"}]}]}
